This is an account of results in patent US7037662 (dated 2006).

The chains are these.
B8: soluble HEK (sHEK), complete extracellular domain (exodomain) of HEK encoded by exons I-VII (receptor, human, UniProt P29320 21-541, looked up)
chain: ELIPQPSNEVNLLDSKTIQGELGWISYPSHGWEEISGVDEHYTPIRTYQVCNVMDHSQNNWLRTNWVPRNSAQKIYVELKFTLRDCNSIPLVLGTCKETFNLYYMESDDDHGVKFREHQFTKIDTIAADESFTQMDLGDRILKLNTEIREVGPVNKKGFYLAFQDVGACVALVSVRVYFKKCPFTVKNLAMFPDTVPMDSQSLVEVRGSCVNNSKEEDPPRMYCSTEGEWLVPIGKCSCNAGYEERGFMCQACRPGFYKALDGNMKCAKCPPHSSTQEDGSMNCRCENNYFRADKDPPSMACTRPPSSPRNVISNINETSVILDWSWPLDTGGRKDVTFNIICKKCGWNIKQCEPCSPNVRFLPRQFGLTNTTVTVTDLLAHTNYTFEIDAVNGVSELSSPPRQFAAVSITTNQAAPSPVLTIKKDRTSRNSISLSWQEPEHPNGIILDYEVKYYEKQEQETSYTILRARGTNVTISSLKPDTIYVFQIRARTAAGYGTNSRKFEFETSPDSFSISGESSQ
notes: extracellular domain; Untagged soluble exodomain from CHO cells; also called HEK exodomain

Experiment [1] has as its target B8. Put plainly: BIAcore, apparent KD from equilibrium responses, LERK-Fc over immobilised HEK. How it is done:
(§1) Figure 2C: FIG. 2C: Expression of soluble HEK (sHEK) polypeptides encoded by the constructs shown in B. sHEK in lane 1 corresponds to the complete extracellular domain (exodomain) of HEK encoded by exons I–VII. […] Samples (50 μl) of purified fusion proteins comprising the human Fc domain and either LERK 1, 2, 3, 4, 5 and 7 at 10 μg/ml in BIAcore running buffer were applied onto an sHEK-derivatised sensor chip. The responses were recorded 20 s after completion of the injection phase and are shown as relative BIAcore response units, (RU) compared to the response of an equal amount of human Fc domain used as a control in this experiment.
(§2) Receptor-ligand interactions within the Eph family RTKs has mainly been studied by modified indirect Scatchard analysis of human IgG-Fc fusion proteins of ligands or receptors binding to receptor or ligand transfected cells, respectively (Beckmann et al., 1994, supra; Davis et al., 1994, supra; Ceretti et al., 1995, supra: Bennett et at., 1995). To evaluate if BIAcore analysis also detected the interaction of various LERKs with HEK, we compared the binding of bivalent, Fc-fusion proteins of LERK (LERKS 1 to 5) and LERK 7 (FIG. 2C) to sensor chip-immobilised HEK exodomain. Each ligand sample was injected at concentrations between 0.1–10 µg/ml (approximately 0.8 to 80 nM) across the sensor chip. A sample containing 10 µg/ml of the recombinant Human Fc fragment was used as a control.
A general note: In SPR one partner is held on a chip, and binding of the other changes the refractive index at the surface.

The target in experiment [2] is T1, LERK 7-FLAG (monovalent LERK7/AL-1 with N-terminal FLAG peptide) (human, UniProt P52803 21-203, limits assumed).
T1 construct: domain: mature protein stopped before the hydrophobic tail; also called soluble LERK7
T1 sequence (looked up): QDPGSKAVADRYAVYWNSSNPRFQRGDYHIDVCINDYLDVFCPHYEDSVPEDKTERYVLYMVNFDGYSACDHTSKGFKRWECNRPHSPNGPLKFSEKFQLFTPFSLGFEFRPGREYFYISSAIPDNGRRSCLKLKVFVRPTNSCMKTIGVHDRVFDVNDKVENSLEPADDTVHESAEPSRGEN
Put plainly: BIAcore in-solution competition; 40 nM LERK 7 with increasing competitor injected onto an sHEK-derivatised sensor chip; residual response as % of the response without competitor. As for the experimental part:
(§3) The binding of various HEK constructs and derived peptides was analysed on the BIAcore optical biosensor (Pharmacia Biosensor, Sweden) using purified soluble HEK (corresponding to the entire extracellular domain) or LERK 7-FLAG derivatised CM 5 sensor chips and the interaction kinetics determined. The immobilization of HEK onto the sensor chip surface was performed essentially as described by Lackmann et al, 1996. LERK7-FLAG (47 μg/ml in 20 mM sodium acetate, pH 4.5) was coupled at 5 μl/min onto N-hydroxysuccinimide (NHS, 0.05 M)/N-hydroxysuccinimide-N-ethyl-N'-([…]) carbodiimide(EDC, 0.2 M) activated sensor chips (45 μl, 2 μl/min) to yield an increase in the response level of 2500–3000 response units (RU).
Figure 2F: FIG. 2F: Samples containing 40 nM LERK 7 and 1 nM—10 μM synthetic peptide encoded by exons I and II of the HEK gene (Δ), 10 nM—1 μM HEK I–VII (o), 10 nM—1 μM HEK IV–VII (x) or 1 nM—1 μM HEK I-III (□) were injected onto an sHEK-derivatised sensor chip. The residual responses are illustrated as percentage of the total response in the absence of competitor.

In experiment [3] the target is B8. Put plainly: BIAcore, apparent KD from kinetic rate constants, immobilised sHEK. How it is done: as §3
(§4) Figures 5A, 5B: FIG. 5: Binding curves for the interaction of monovalent LERK-FLAG fusion proteins with immobilised sHEK. Homogeneous preparations of CHO cell-derived LERK 3-FLAG (panel A) or LERK 7-FLAG (panel B) at increasing concentrations (8.22, 16.44, 32.88, 65.75, 131.5, 263, 526 nM) of LERK3-FLAG, and (1.25, 2.5, 5, 10, 20, 40, 80 nM) LERK7-FLAG were injected across an sHEK-derivatised sensor surface. BIAcore data for the association and dissociation phases were used to estimate corresponding kinetic rate constants on the basis of a one-to-one interaction model. (panel C). […]

Experiment [4] deals with B8. The experiment is described as follows: BIAcore, LERK-FLAG over HEK sensor chip; reference LERK 7-FLAG.
Experiment [5] addresses B8. Put plainly: BIAcore, LERK 3-FLAG over immobilised sHEK, single component model. How it is done: as §3, §4
Experiment [6] has as its target T2, recombinant Human Fc fragment (control) (human, UniProt P01857-1 99-330 = IgG part, limits assumed).
T2 construct: domain: Fc fragment; also called human Fc domain; control recombinant Fc construct
Put plainly: BIAcore; human Fc domain at 10 µg/ml (50 µl) on an sHEK-derivatised sensor chip; response 20 s after the end of the injection. How it is done:
as §1
as §2, with “A sample containing 10 µg/ml of the recombinant Human Fc fragment was used as a control.” left out

B1: LERK 4-Fc fusion protein (Fc fusion, UniProt P52798 26-170, looked up)
chain: LRHVVYWNSSNPRLLRGDAVVELGLNDYLDIVCPHYEGPGPPEGPETFALYMVDWPGYESCQAEGPRAYKRWVCSLPFGHVQFSEKIQRFTPFSLGFEFLPGETYYYISVPTPESSGQCLRLQVSVCCKERKSESAHPVGSPGES
notes: not shown: human Fc domain
Turning to B1, in experiment [1], the Kd came to 6 nM.

B2: LERK 5-Fc fusion protein (Fc fusion, UniProt P52799 28-229, looked up)
chain: IVLEPIYWNSSNSKFLPGQGLVLYPQIGDKLDIICPKVDSKTVGQYEYYKVYMVDKDQADRCTIKKENTPLLNCAKPDQDIKFTIKFQEFSPNLWGLEFQKNKDYYIISTSNGSLEGLDNQEGGVCQTRAMKILMKVGQDASSAGSTRNKDPTRRPELEAGTNGRSSTTSPFVKPNPGSSTDGNSAGHSGNNILGSEVALFA
notes: not shown: human Fc domain
For the molecule B2, the Kd in experiment [1] was 24 nM.

B3: HEK I-III (FLAG-tagged HEK subdomain construct, exons I-III) (receptor, not shown: small tags and cut ends)
chain: ELIPQPSNEVNLLDSKTIQGELGWISYPSHGWEEISGVDEHYTPIRTYQVCNVMDHSQNNWLRTNWVPRNSAQKIYVELKFTLRDCNSIPLVLGTCKETFNLYYMESDDDHGVKFREHQFTKIDTIAADESFTQMDLGDRILKLNTEIREVGPVNKKGFYLAFQDVGACVALVSVRVYFKKCPFTVKNLAMFPDTVPMDSQSLVEVRGSCVNNSKEEDPPRMYCSTEGEWLVPIGKCSCNAGYEERGFMCQ
notes: Native signal peptide (residues 1-20) replaced by IL3 signal and FLAG
With B3, in experiment [2], the “IC50 (read off the curve)” value was roughly 70 nM.

B4: LERK 3-FLAG (monovalent FLAG-tagged LERK 3) (ligand, UniProt P52797 23-214, looked up, not shown: small tags and cut ends)
chain: QGPGGALGNRHAVYWNSSNQHLRREGYTVQVNVNDYLDIYCPHYNSSGVGPGAGPGPGGGAEQYVLYMVSRNGYRTCNASQGFKRWECNRPHAPHSPIKFSEKFQRYSAFSLGYEFHAGHEYYYISTPTHNLHWKCLRMKVFVCCASTSHSGEKPVPTLPQFTMGPNVKINVLEDFEGENPQVPKLEKSISG
notes: CHO cell-derived
A word on the koff: it is the rate constant with which the complex falls apart. For orientation: kon means the rate constant with which the complex forms. Read a low kon as slow association. On to B4, for which the Kd in experiment [3] worked out at 590 nM. For the same molecule, the “fold higher concentration needed for a response comparable to LERK7” value in experiment [4] was roughly 30 fold. In experiment [5], this molecule registered a koff of 0.26 s⁻¹ and a kon of 370000 M⁻¹ s⁻¹.

B5: LERK 3-Fc fusion protein (Fc fusion, UniProt P52797 23-214, looked up)
chain: QGPGGALGNRHAVYWNSSNQHLRREGYTVQVNVNDYLDIYCPHYNSSGVGPGAGPGPGGGAEQYVLYMVSRNGYRTCNASQGFKRWECNRPHAPHSPIKFSEKFQRYSAFSLGYEFHAGHEYYYISTPTHNLHWKCLRMKVFVCCASTSHSGEKPVPTLPQFTMGPNVKINVLEDFEGENPQVPKLEKSISG
notes: not shown: human Fc domain
B5: the Kd in experiment [1] stood at 5 nM.

B6: LERK7-Fc fusion protein (Fc fusion, UniProt P52803 21-203, looked up)
chain: QDPGSKAVADRYAVYWNSSNPRFQRGDYHIDVCINDYLDVFCPHYEDSVPEDKTERYVLYMVNFDGYSACDHTSKGFKRWECNRPHSPNGPLKFSEKFQLFTPFSLGFEFRPGREYFYISSAIPDNGRRSCLKLKVFVRPTNSCMKTIGVHDRVFDVNDKVENSLEPADDTVHESAEPSRGEN
notes: not shown: Fc and hinge regions of human IgG1
In the case of B6, the Kd in experiment [1] worked out at 3 nM.

B7: HEK I-VII (N-terminally FLAG-tagged HEK exodomain, exons I-VII) (receptor, human, UniProt P29320 21-541, looked up, not shown: small tags and cut ends)
chain: ELIPQPSNEVNLLDSKTIQGELGWISYPSHGWEEISGVDEHYTPIRTYQVCNVMDHSQNNWLRTNWVPRNSAQKIYVELKFTLRDCNSIPLVLGTCKETFNLYYMESDDDHGVKFREHQFTKIDTIAADESFTQMDLGDRILKLNTEIREVGPVNKKGFYLAFQDVGACVALVSVRVYFKKCPFTVKNLAMFPDTVPMDSQSLVEVRGSCVNNSKEEDPPRMYCSTEGEWLVPIGKCSCNAGYEERGFMCQACRPGFYKALDGNMKCAKCPPHSSTQEDGSMNCRCENNYFRADKDPPSMACTRPPSSPRNVISNINETSVILDWSWPLDTGGRKDVTFNIICKKCGWNIKQCEPCSPNVRFLPRQFGLTNTTVTVTDLLAHTNYTFEIDAVNGVSELSSPPRQFAAVSITTNQAAPSPVLTIKKDRTSRNSISLSWQEPEHPNGIILDYEVKYYEKQEQETSYTILRARGTNVTISSLKPDTIYVFQIRARTAAGYGTNSRKFEFETSPDSFSISGESSQ
notes: extracellular domain; CHO cell product; in the zebrafish experiments expressed from injected mRNA; also called HEK-FLAG
Consider B7, for which the “IC50 (read off the curve)” value in experiment [2] is roughly 90 nM.

Consider B8, for which the binding result in experiment [6] is given as “no binding (tested: 10 µg/ml)”.
